This note sets out measurements from patent US9068161B2, “Laccases and uses thereof” (DEINOVE, priority 2010, dated 2015).

Series [1] is described as follows: Laccase assay, overall conclusion on recombinant enzyme. The format is biochemical. The settings on record: in the tested conditions. How it is done: (§1) Standard assays for laccase activity were performed at the temperature range from 30° C. to 90° C. by measurement of enzymatic oxidation of substrates at appropriate wavelength. The reaction was performed in presence of a substrate concentration range, 0.05 mg/mL of purified enzyme and 1 mM prepared in 0.1M citrate-phosphate buffer pH8.
Standard assays were performed using the following substrates: 2,6 DMP, 4-methyl DMP, synapic acid, syringic acid, guaiacol, ABTS, paraphenylenediamine and ferulic acid.
Reagent A (185 μl) was mixed with Reagent B (10 μl). The mixture was equilibrated to 45° C. or 60° C. The absorbance at 470 nm was monitored until constant, using a suitably thermoregulated spectrophotometer. Then Reagent C (5 μl) was added and the increase in A470 nm was recorded for 30 minutes. The ΔA470 nm/minute was obtained using the maximum linear rate for the Test, Control and Blank, Blank being mixture without enzyme and Control being mixture with laccase from Trametes versicolor (T. versicolor, commercial enzyme) replacing Laccase enzyme solution (Reagent C).
Other substrates, different from 2,6 DMP such as 4-methyl DMP, synapic acid, syringic acid, guaiacol, ABTS, paraphenylenediamine and ferulic acid have also been tested at optimal concentration for each substrate (as shown in Tables 1A and 1B).

A short description of series [2]: Temperature and pH optimum of laccase activity. The settings on record: 2,6 DMP as substrate. The format is biochemical. Here is the method: as §1
In another series of experiments, the laccase activity according to the invention, was also tested in different conditions of temperature and pH using various substrates.

Substrate in series [3]: COc1cccc(OC)c1O
As to the kind of experiment: Laccase assay, Laccase 1 activity (oxidation of substrates, spectrophotometric). The format is biochemical, Deinococcus cellulolysiticus DRH46. The settings on record: other: 60° C., pH 8, 0.1M citrate-phosphate buffer, 0.05 mg/mL purified enzyme. From the text:
(§2) Two enzymes having laccase activity have been characterized from Deinococcus cellulolysiticus DRH46 (namely laccase 1, laccase 2), and one enzyme having laccase activity has been characterized from Deinococcus maricopensis DSM 21211 (i.e., laccase 3). The amino acid sequences of laccase 1, laccase 2 and laccase 3 are represented in SEQ ID NO: 2, 4 and 6, respectively.
(§3) As mentioned in Example 1, nucleic acids encoding the laccase 1, 2 and 3 enzymes comprising the amino acid sequence of SEQ ID NO: 2, 4 or 6 respectively, were cloned into the pETDEST42 vector according to conventional recombinant techniques. In each vector, the cloned nucleic acid was cloned in frame with a 6(His) tag (SEQ ID NO: 7), to facilitate purification of the recombinant protein.
(§4) E. coli cells harboring the recombinant nucleic acid are prepared and grown in 4 liters of LB medium. Induction of the enzyme production is performed overnight in the presence of 1 mM IPTG and 2 mM of […]. […]
(§5) The assay is performed at T=45° C. and 60° C., pH=8. The absorbance was measured at A470 nm and the measure was carried out using Continuous Spectrophotometric Rate Determination. […]
(§6) Reagent A (185 μl) was mixed with Reagent B (10 μl). […] The absorbance at 470 nm was monitored until constant, using a suitably thermoregulated spectrophotometer. Then Reagent C (5 μl) was added and the increase in A470 nm was recorded for 30 minutes. […]

Substrate in series [4]: COc1ccccc1O
The series is described as above. The format is biochemical, Deinococcus cellulolysiticus DRH46. The settings on record: other: 60° C., pH 8, 0.1M citrate-phosphate buffer, 0.05 mg/mL purified enzyme.
Text: as §2, §3, §4, §5, §6

Substrate in series [5]: COc1cccc(OC)c1O
As to the kind of experiment: Laccase assay, Laccase 2 activity (oxidation of substrates, spectrophotometric). The note with it: other: 60° C., pH 8, 0.1M citrate-phosphate buffer, 0.05 mg/mL purified enzyme. The format is biochemical, Deinococcus cellulolysiticus DRH46.
Text: as §2, §3, §4, §5, §6

Substrate in series [6]: COc1ccccc1O
The description is as above. The note with it: other: 60° C., pH 8, 0.1M citrate-phosphate buffer, 0.05 mg/mL purified enzyme. The format is biochemical, Deinococcus cellulolysiticus DRH46.
Text: as §2, §3, §4, §5, §6

B1: Laccase 2: enzyme having laccase activity from Deinococcus cellulolysiticus DRH46, amino acid sequence SEQ ID NO: 4, recombinant with 6(His) tag (protein)
chain: MIRTLTSLTLLTVALTACAPKGSPMTEYHNPAEVQASRTEKGSTFTLTAAETSITLDGKEVKAQLFNQSFPGPQLTLQAGEQVNLTLKNDLREPTNLHLHGLTLPAGVDDPFLQVQPGESHTYSFTVPQGLHGTFWYHTHTHGHLGTQLFQGLAGPLIVEDPTFDSHIQGMETHTVVLKDLPVEVQDSDGTRMNGREGKLLVNGLSSPTLKTESSWVRLRLINASNARYDLLKLSGSAFLHVIAKDGIDLPKTEQVKELLLTPGERADVLISVQDQQDLRLENHPYDRGVHEMDGGHQGHTPSTPEVLLTLQGKKGSVSASVPQPALQPRPFLKVTGNEAIRKVVLQETMQPVKFFINGRTFDMNRVDFHVSEGTTEIWEVENQTEMDHPFHLHTFPVQVLSVNGQEVPPVWKDTVNVPAKAKVQVAVKFEGFTGKTVFHCHIAEHEEEGMMGVLQVHPAGEALPASLTPTLPPAAASEDMPDMPGMDHSGH
modifications: 6xHis tag; Laccase 2 derived from Deinococcus cellulolyticus DRH46
Consider B1, for which the “Laccase activity of the recombinant enzyme” value in series [1] is reported as “fully active”. In series [2], the “Optimal pH” value came to 8 and the Optimal temperature stood at 70 °C.

B2: Deinococcus cellulolysiticus DRH46 laccase 1, recombinant, SEQ ID NO: 2 (Deinococcus cellulosilyticus NBRC 106333 = KACC 11606) (protein)
chain: NPDVISYQDPEPLAGQRSGKAAEFTLTAQKSRLDLAGQSVEALTYNGTFPGPLLTLKAGEDVRITLKNNLSEPTNLHLHGLPLSPEVDDPFVVVPPGGSHTYAFQVPEEVHGTFWYHTHTHGASAAQLFSGLAGPLLVEAAKPNNPIEHMETHTVVFKDLPGAQHADDGVLMNGRENTLLVNGLVSPTLKTENSWVQLRLINASNARYLRLKLDDGLLQVVARDGIDLPGMERAQELLLTPGERADVLVSLQDHQNLKLQNLPYDRGVHSMGSHSGHTESKTAVVLTLQGPQKPGASVPRVETAPPPFLQLQGNEKVRKVILQETMQPVKFFINGRSFDMNRVDFHVSEGSTEIWELQNTTEMDHPFHLHTFPMQLIRIGGKEVPPVWKDTVNIPKNSTVTVAVHFKGFTGKTVFHCHIAEHEEAGMMGLLQVHPSGTALPASLEPIEPTVGPGEDAQHGH
As for B2, the results for the Michaelis constant (Km) in series [3] and in series [4] were 798 ± 35 µM and 3046 ± 183 µM, respectively.

B3: Deinococcus cellulolysiticus DRH46 laccase 2, recombinant, SEQ ID NO: 4 (Deinococcus cellulosilyticus NBRC 106333 = KACC 11606) (protein)
chain: PKGSPMTEYHNPAEVQASRTEKGSTFTLTAAETSITLDGKEVKAQLFNQSFPGPQLTLQAGEQVNLTLKNDLREPTNLHLHGLTLPAGVDDPFLQVQPGESHTYSFTVPQGLHGTFWYHTHTHGHLGTQLFQGLAGPLIVEDPTFDSHIQGMETHTVVLKDLPVEVQDSDGTRMNGREGKLLVNGLSSPTLKTESSWVRLRLINASNARYDLLKLSGSAFLHVIAKDGIDLPKTEQVKELLLTPGERADVLISVQDQQDLRLENHPYDRGVHEMDGGHQGHTPSTPEVLLTLQGKKGSVSASVPQPALQPRPFLKVTGNEAIRKVVLQETMQPVKFFINGRTFDMNRVDFHVSEGTTEIWEVENQTEMDHPFHLHTFPVQVLSVNGQEVPPVWKDTVNVPAKAKVQVAVKFEGFTGKTVFHCHIAEHEEEGMMGVLQVHPAGEALPASLTPTLPPAAASEDMPDMPGMDHSGH
As to B3, the Michaelis-Menten constant (Km) was determined as 992 ± 141 µM in series [5] and 5074 ± 343 µM in series [6].

B4: Laccase 1: enzyme having laccase activity from Deinococcus cellulolysiticus DRH46, amino acid sequence SEQ ID NO: 2, recombinant with 6(His) tag (protein)
chain: MKQRLTAAALLTALLSSCAMKNPDVISYQDPEPLAGQRSGKAAEFTLTAQKSRLDLAGQSVEALTYNGTFPGPLLTLKAGEDVRITLKNNLSEPTNLHLHGLPLSPEVDDPFVVVPPGGSHTYAFQVPEEVHGTFWYHTHTHGASAAQLFSGLAGPLLVEAAKPNNPIEHMETHTVVFKDLPGAQHADDGVLMNGRENTLLVNGLVSPTLKTENSWVQLRLINASNARYLRLKLDDGLLQVVARDGIDLPGMERAQELLLTPGERADVLVSLQDHQNLKLQNLPYDRGVHSMGSHSGHTESKTAVVLTLQGPQKPGASVPRVETAPPPFLQLQGNEKVRKVILQETMQPVKFFINGRSFDMNRVDFHVSEGSTEIWELQNTTEMDHPFHLHTFPMQLIRIGGKEVPPVWKDTVNIPKNSTVTVAVHFKGFTGKTVFHCHIAEHEEAGMMGLLQVHPSGTALPASLEPIEPTVGPGEDAQHGH
modifications: 6xHis tag; Laccase 1 derived from Deinococcus cellulolyticus DRH46
Take B4: the “Laccase activity of the recombinant enzyme” value in series [1] is listed as “fully active”. For the same molecule, in series [2], the “Optimal pH” value stood at 8 and the Optimal temperature was determined as 90 °C.

The term Km denotes the concentration of substrate that gives half-maximal velocity.
